The supplement of paper PMC12764529
± gives the half width of the 95% confidence interval.

Legend:
[1] = folding stability dG unfold (combined trypsin and chymotrypsin); higher = more stable
Summary of the method: (§1)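 How resistant each design was to proteolysis was captured as K50, inferred by Bayesian fitting of sequencing counts. Unfolding free energy was then derived relative to a sequence-predicted unfolded-state K50 and a shared folded-state K50, per protease or combined. Digestion used trypsin and chymotrypsin at 11 threefold-diluted concentrations plus a no-protease condition, on mini-proteins under 80 residues without cysteine in a PA-tagged cDNA display construct. Designs were kept only when AlphaFold2 dimer inter-PAE was above 15.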

[2] = folding stability dG unfold from trypsin proteolysis; higher = more stable
Summary of the method: as §1

[3] = folding stability dG unfold from chymotrypsin proteolysis; higher = more stable
Summary of the method: as §1

Row | Sequence | folding stability dG unfold [1] [kcal/mol] | folding stability dG unfold [2] [kcal/mol] | folding stability dG unfold [3] [kcal/mol]
1 | SAGRIYVDPNMVVIEIKYPDKPMPIIIPFKDPEDQEMAKELVKKIMRYLRNEGLPVEVEVEVFPPGQPVSAG [r5_823_TrROS] | 2.11 ± 0.11 | 1.51 ± 0.026 | 2.41 ± 0.026
2 | SKKKKPPKKTVTVVVKVKPGEKITLTLKNKDGKEIAKVEFTKLPEDEPLYIATVTLKDGKLTIKVTKLKPSA [r9_238_TrROS_Hall] | 2.66 ± 0.34 | 2.1 ± 0.36 | 2.53 ± 0.13
3 | SAGGRRPVTAEEAADRLMKELGIPGLKNIKDVTMEYEVYDPDGKPWSRVDITIKIKMPPEQRDRLKKLSAGG [r13_552_TrROS] | 0.51 ± 0.16 | 0.607 ± 0.12 | 0.436 ± 0.19
4 | SAGGVEEIVEKLPEEAEEVEITSEPHPLPGSTLTKYTIKAKNSATGKTKTYEVTVLYDPEGNVLEVLLSAGG [r13_358_JUSTAS] | 2.22 ± 0.19 | 1.7 ± 0.061 | 2.74 ± 0.082
5 | SAGGSAGGSDYEYENEKDPDGQTKMKMRPKPPPVTVEVLIKLPNGLYFPIEITIYGNHITISISAGGSAGGS [r12_784_TrROS] | 2.32 ± 0.23 | 2.17 ± 0.12 | 2.52 ± 0.075
6 | SAGGKKKTAEELAEELKKKLEELGFKVVKIEKLPDGTVLITFEDGYVIKFDVKTGKITIMPKEELEKLSAGG [r13_717_TrROS_Hall] | 1.96 ± 0.079 | 1.62 ± 0.11 | 2.16 ± 0.029
7 | SMSREELREYARAHPDRPLALILPGKKTLLLFDPATGAEREEDITSVEEAKERLAAQPVAVVEVVSAELLSA [r9_775_JUSTAS] | 0.294 ± 0.11 | -0.439 ± 0.37 | 0.499 ± 0.085
8 | SAGGSAGGSAGGSPPGQEILIQIKIEFTFPIKKQTDGKPQWHPITISFTAAIPIKVDPNSAGGSAGGSAGGS [r4_271_TrROS] | 3.52 ± 0.14 | 3.22 ± 0.13 | 3.59 ± 0.092
9 | SAMKVEKLEELPDKEILKVEATPEELRKIVEELAKANPGYEVSYKILEEEPIALITLTPIPKGPKENLVSAG [r14_600_JUSTAS] | 0.796 ± 0.13 | 1.08 ± 0.06 | 0.0174 ± 0.2
10 | SAGGSAGGSAGGMPVLVNIELPIPGTNETLTLEVEAEGPGGEEVEKEAQETAEKVLEESSAGGSAGGSAGGS [r10_863_JUSTAS] | 1.72 ± 0.11 | 1.58 ± 0.1 | 1.79 ± 0.068
11 | SAGMVVIEVKKDEVPVDPEKALVFEFGDKRYILVDGEKAEEIKDAFPNLDIKIKPVSPEELEKLLKAHSAGG [r19_271_TrMRF] | 1.27 ± 0.14 | 1.18 ± 0.051 | 1.34 ± 0.1
12 | SAGGSIKVFESESTDPATGKVTTTTTTVTESSEEPTPEAAKNTPPGETTTTTTTTTTTSPVPPGTAASAGGS [r8_274_JUSTAS] | 0.54 ± 0.14 | 0.476 ± 0.057 | 0.67 ± 0.022
13 | SAPWRITDIDVKRHPNGRVRVTIRFPHPNMSVEIWLDKDGELDVEVSPDMRNHPPWFQNMIRDVAKELLSAG [r14_555_TrROS] | 2.15 ± 0.1 | 2.77 ± 0.1 | 1.33 ± 0.11
14 | SMTLPANAKAKVTVLVLFYDPETGEATLVKVDYTATFKPDDKGNLVVEVEPSKIEFIGPISLEEAKKIAGSA [r9_423_TrMRF] | 2.55 ± 0.21 | 2.57 ± 0.15 | 2.11 ± 0.058
15 | SAGGDITITKNPENDYYTITLPLPNSNSTAVAFLDPKTGTAVVINPDNPLVLVLEPNGTLKEVKLLPPSAGG [r13_101_TrMRF] | 0.902 ± 0.15 | 1.04 ± 0.05 | 0.566 ± 0.2
16 | SAGGSAGGSAGMRLLTVEYFDENGNPLSVEEIELYIERPPPPFLELEIDPRTGEPRFTGLSAGGSAGGSAGG [r17_348_JUSTAS] | 1.36 ± 0.14 | 1.01 ± 0.078 | 1.68 ± 0.068
17 | SAGGSAGGSAGGKIKPGQTVIFIELKITKQRDGPDGKRYMEFEIERIDIFRIPPGDNILSAGGSAGGSAGGS [r10_826_TrROS] | 3.03 ± 0.13 | 2.55 ± 0.068 | 3.18 ± 0.13
18 | SAGGSAGGSMRLDLDDIKRVEREPTPNGMRVYEIKLKGHKLPIRYHDNKIEISPEFKDLLKDISAGGSAGGS [r20_92_TrROS] | -0.253 ± 0.15 | -0.382 ± 0.19 | -0.483 ± 0.23
19 | SANDKHKYEEEYPYRNPNDPGQPMPFKREREVPVQPPPVITIDADELAKELKEQGEIKIPPDGWIAIPFSAG [r14_582_TrROS] | 3.51 ± 0.49 | 3.08 ± 0.4 | 4.1 ± 0.2
20 | SAGGSAMAYLVRAELEVEGPDGRRERLELVLVAEDLPLEEALAAAREAAAELGAELVSVEVEPLEPSAGGSA [r15_550_TrMRF] | 2.21 ± 0.098 | 0.858 ± 0.061 | 2.55 ± 0.039
21 | SAGGSAMFKSPSDKYFEPIAVIDLEKASPETLKALLEENPGKLLVIPKSTGKPRLIPAEELLELLGSAGGSA [r15_904_TrMRF] | 0.0646 ± 0.2 | 0.0892 ± 0.21 | -0.154 ± 0.41

Row | Sequence | folding stability dG unfold [1] [kcal/mol] | folding stability dG unfold [2] [kcal/mol] | folding stability dG unfold [3] [kcal/mol]
22 | SMEMTPEERLLALLREARKKHPGKKIVLSVEEIEELLGVDLSAEEIAKLLKEELGIDEVEIVEEEEPEEESA [r9_738_TrROS_Hall] | 3.01 ± 0.069 | 2.11 ± 0.056 | 3.375 ± 0.031
23 | SAGGSAGGSAGGSMTSIKITYPDGSTKSASVSVDPNTGKVTTTFTDYTLSPDAKFTTISSAGGSAGGSAGGS [r10_306_JUSTAS] | 0.325 ± 0.073 | 0.372 ± 0.027 | 0.202 ± 0.11
24 | SAGGSAGGSAGMKSTVTQPGDTWTITITDPETGEVTTYTLTPAQLGELAASSRPVAVAPGSAGGSAGGSAGG [r11_741_JUSTAS] | 1.24 ± 0.058 | 0.614 ± 0.053 | 1.5 ± 0.086
25 | SAGGSAGGSAGGIKLENPNGFEVYKSPDSMVEIEFVNPNGKPMRYIIQVDEPGEIKPYPVSAGGSAGGSAGG [r7_423_TrROS] | 0.0566 ± 0.2 | 0.0628 ± 0.13 | 0.0804 ± 0.23
26 | SAGGSAGGVVPLEELAKRLGWSPEFLRELEEKGIKVELERVTPDKVVVTLTEPGTGETKTIELPSAGGSAGG [r6_969_JUSTAS] | 3.08 ± 0.17 | 3.19 ± 0.24 | 2.82 ± 0.13
27 | SAGEEIERLLKEIEEAVRKAYPDKVVKVDLVKVELRPVLVVDPGTPRIEERTEIFLEVKVTVTHPDELSAGG [r19_293_TrMRF] | 2.63 ± 0.087 | 2.22 ± 0.098 | 2.77 ± 0.08
28 | SAGGSAGGSAGGGISEAAASGTPLLVTYTDESGNVTEVVVRPDSPVPLPGVVSAEVRLESAGGSAGGSAGGS [r10_700_JUSTAS] | 0.666 ± 0.037 | 1.05 ± 0.03 | 0.167 ± 0.023
29 | SAGGSAGGEVEIEVTEEEEVPGLPDQEIVTKAKLPDGKTVTIKRTVDPKTGKVSVSFSVIEPPLSAGGSAGG [r6_337_JUSTAS] | 0.363 ± 0.24 | 0.44 ± 0.19 | 0.355 ± 0.2
30 | SAGGSAGGSAGSKTIEVVIPVKPNELTPEQAENLIKPFFPDAKIEVTPEGNYLVVKVEVSSAGGSAGGSAGG [r11_7_TrMRF] | 0.366 ± 0.18 | 0.475 ± 0.11 | 0.334 ± 0.067
31 | SAKKIKIKEITITVEKNKDGSYTITITVDGKKIAELTFKTPEEAEKAAEELAKELAKKLNVDKIEIKPTSAG [r14_791_TrROS_Hall] | 2.09 ± 0.22 | 1.5 ± 0.18 | 2.69 ± 0.25
32 | SAGGSAGGSAPTSSVVTFPYESPEEARERARELAEEERARRGVRFRVEYDPATGTVTLTAVESAGGSAGGSA [r18_368_JUSTAS] | 0.859 ± 0.13 | 0.673 ± 0.064 | 0.926 ± 0.12
33 | SPTIKASYDPETGVLTVYVKLRDPETGEPIPAEAVAAKIKELFPDAEILDIEPNPDGYVKITVKVAPDAVSA [r9_87_TrMRF] | 3.72 ± 0.071 | 3.48 ± 0.11 | 3.79 ± 0.086
34 | SAGGSAGGSDTLEYEVPLEDGSTIRITLFPDGTARVELEDGTPVAEIEVPPDTSIEELIARIRSAGGSAGGS [r12_990_TrMRF] | 2.45 ± 0.076 | 2.74 ± 0.081 | 2.06 ± 0.063
35 | SAGGSAGGSAGVIPLPGGEEVEYFPEKGEATVRLPDGTVYKVEITKAPDGSLSVTVTPAGSAGGSAGGSAGG [r11_331_JUSTAS] | 1.45 ± 0.052 | 1.79 ± 0.052 | 1.1 ± 0.035
36 | SMPRLVATPRPDGSVLVLLEAPPERPEEIAEEIRERLGVPLRVVRIEPVPERVGDRPRLRYRVLIEVDVRSA [r9_431_TrMRF] | 0.976 ± 0.095 | 0.96 ± 0.077 | 0.923 ± 0.12
37 | SAGEVKIEVEGLPDKTVIRITIPYTAPGVGPSALLAVLKELGLPPETKLLKVEFYEEPKTVEALVVQGSAGG [r19_186_TrMRF] | 1.63 ± 0.11 | 1.13 ± 0.088 | 1.72 ± 0.16
38 | SAGGEGEPFRITPDEIQRIFNELAQDHGFNVSISEIQVPGDEVRITISIQHDGGTQSVRLPFRIEKDDSAGG [r13_652_TrROS] | 0.37 ± 0.21 | 0.427 ± 0.2 | 0.191 ± 0.21
39 | SAGGSAGGSAGGMWYIRITYDNGREIWIPIGDPITIKHKDGKPVQIKEVEVYPLPPGQISAGGSAGGSAGGS [r10_20_TrROS] | 2.58 ± 0.11 | 2.04 ± 0.064 | 2.72 ± 0.032
40 | SAGGSAGGSAGEKTFVIDEVKITSVERLPDGSLRVTIEVRLPNGETLTLTLTLPPGAVLESAGGSAGGSAGG [r11_429_TrROS_Hall] | 3.05 ± 0.07 | 2.84 ± 0.11 | 3.19 ± 0.042
41 | SLSPALEGPEALAALAAADPVPPLPVLTVKNSTGDPEKALEEVLKEHPELKPELIVEVEVGEGTLTITVLSA [r9_723_JUSTAS] | 0.48 ± 0.19 | 0.442 ± 0.13 | 0.573 ± 0.095
42 | SAGPWNIMVYDNGEPLEMIEIKGDEITIPLPPGPVRIAIFNPDDNGFVEEEVTPEDGTIEMKIPKGAKISAG [r5_469_TrROS] | -0.113 ± 0.38 | -0.792 ± 0.44 | 0.207 ± 0.33
